Assay [1] deals with T1, IGF-IR (Homo sapiens, UniProt P08069). The experiment in a line: IGF-IR levels in 3T3/IGF-IR tumors by western blot after antibody and/or adriamycin. The format is in vivo, nude mice. The arrangement: expressed in transfected cells; host or cells: NIH-3T3 (mouse fibroblasts). The settings on record: 72 hours after single 250 μg 2.13.2 i.p. or 7.5 mg/kg adriamycin i.v. On the procedure:
Tumors were induced in nude mice as described in Example IX. Mice with established subcutaneous tumors of approximately 400 mm^3 were treated with a single injection of 250 μg 2.13.2 antibody (i.p.) or with 7.5 mg/kg adriamycin (i.v.), either as single agents or in combination, as described in Example IX. 72 hours after administration of the agents, tumors were extracted as described in Example VIII, and equal amounts of the tumor extracts were subjected to sodium […] polyacrylamide gel electrophoresis (SDS PAGE) and western blot analysis using the anti-IGF-IR antibody SC-713 (Santa Cruz). […] Each lane represents equal amounts of protein from individual tumors from individual mice.
In general terms: In western blotting, separated proteins are transferred to a membrane and probed.

Assay [2] deals with T2, extracellular domain of IGF-IR (Homo sapiens, UniProt P08069).
T2 construct: Different concentrations of the extracellular domain of IGF-IR were injected on the sensorchip
Description: BIAcore affinity measurement, Protocol 1. It is filed as binding. The settings on record: BIAcore 3000; antibody captured on protein-A, IGF-IR extracellular domain injected. Here is the method: We performed affinity measures of purified antibodies by surface plasmon resonance using the BIAcore 3000 instrument, following the manufacturer's protocols.
To perform kinetic analyses, protein-A was immobilized on the sensorchip surfaces of the BIAcore. The sensorchip was then used to capture the anti-IGF-IR antibodies of the present invention. Different concentrations of the extracellular domain of IGF-IR were injected on the sensorchip and the binding and dissociation kinetics of the interactions between the anti-IGF-IR antibodies and the extracellular domain of IGF-IR were analyzed. The data were evaluated with global fit Langmuir 1:1, using baseline drift models available on the BIAevaluation software provided by BIAcore.
In general terms: SPR reads the build-up and loss of mass on a sensor chip optically.

In another assay the test system is canine IGF-IR. Description: Species crossreactivity by immunoprecipitation/Western blot. The format is binding. The settings on record: immunoprecipitation, antibody 1 μg/ml. Here is the method: (§1) To perform immunoprecipitation experiments, we plated cells in DMEM high glucose media supplemented with L-glutamine (0.29 mg/ml), 10% heat-inactivated FBS, and 500 μg/ml each of geneticin, penicillin and streptomycin to 50% confluence in T25 flasks. We then added 100 μl of an antibody of the invention in Hank's buffered saline solution (HBSS; Gibco BRL) at a concentration of 1 μg/ml. We incubated the plates for 30 minutes at 37° C. in an incubator and then stimulated the cells with IGF-I at 100 ng/ml for 10 minutes at room temperature. We lysed the cells in RIPA buffer (Harlow and Lane, supra) and immunoprecipitated IGF-IR with 2 μg of pan-specific SC-713 anti-IGF-IR antibody (Santa Cruz) plus protein A agarose beads for 1 hour at 4° C. We pelleted the beads and wash three times with PBS/T (PBS+0.1% Tween-20) and then boiled the beads in 40 μl Laemmli buffer containing 5% βME.
(§2) The samples prepared as described above were then analyzed by Western blot. We loaded 12 μl of each sample per lane on 4-10% gradient Novex™ gels run with 1×MES buffer (Novex™). Gels were run at 150V for 1 hour or at 200V for approximately 30 minutes. We then transferred the gel to a membrane in Novex™ transfer buffer with 10% methanol either overnight at 100 mA or for 1-1.5 hours at 250 mA. We then allowed the membrane to dry completely and blocked at room temperature with TBS (Tris-buffered saline pH 8.0) containing Superblock (Pierce Chemical Co.). We added the IGF-IR blotting antibody SC713 (Santa Cruz) to detect immunoprecipitated IGF-IR.

For the next assay, the system named is guinea pig IGF-IR. Described as above. The settings on record: immunoprecipitation, antibody 1 μg/ml. The format is binding. Here is the method: as §1, §2
A further assay deals with rabbit IGF-IR. The description is as above. It is filed as binding. Particulars: immunoprecipitation, antibody 1 μg/ml. On the procedure:
as §1, §2

Another assay relates to Rhesus IGF-IR. The assay is described as above. Particulars: immunoprecipitation, antibody 1 μg/ml. The format is binding. Here is the method:
as §1, §2

The test system of the next assay is IGF-IR from the marmoset. The description is as above. It is filed as binding. Particulars: immunoprecipitation, antibody 1 μg/ml. Here is the method: as §1, §2
Assay [3] concerns the target T1, IGF-IR. Described as above. It is filed as binding. Particulars: immunoprecipitation, antibody 1 μg/ml. The arrangement: on cells from a variety of animals; endogenous in cells. On the procedure:
as §1
(§3) The samples prepared as described above were then analyzed by Western blot. We loaded 12 μl of each sample per lane on 4-10% gradient Novex™ gels run with 1×MES buffer (Novex™). Gels were run at 150V for 1 hour or at 200V for approximately 30 minutes. We then transferred the gel to a membrane in Novex™ transfer buffer with 10% methanol either overnight at 100 mA or for 1-1.5 hours at 250 mA. […]

In a further assay the test system is COS7 IGF-IR. Described as above. The format is binding, old world monkey. Particulars: immunoprecipitation, antibody 1 μg/ml. Here is the method:
as §1, §3

The target in assay [4] is T3, extracellular domain (ECD) of IGF-IR (Homo sapiens, UniProt P08069).
T3 construct: Different concentrations of the extracellular domain of IGF-IR were injected on the sensorchip
Description: BIAcore competition (epitope mapping). It is filed as binding. Particulars: first antibody bound under saturating conditions. An excerpt:
We conducted BIAcore competition studies to determine whether the antibodies of this invention bind to the same or distinct site on the IGF-IR molecule. We bound the extracellular domain (ECD) of IGF-IR to a BIAcore sensorchip as described above in Example II. We bound a first antibody of the invention to this sensorchip-bound IGF-IR under saturating conditions. We then measured the ability of subsequent secondary antibodies of the invention to compete with the primary antibody for binding to IGF-IR.

For the molecule `COc1cccc2c1C(=O)c1c(O)c3c(c(O)c1C2=O)C[C@@](O)(C(=O)CO)C[C@@H]3O[C@H]1C[C@H](N)[C@H](O)[C@H](C)O1` [adriamycin, reference compound], on IGF-IR [1], the “IGF-IR levels in tumors, single agent” value is “little effect on IGF-IR levels”.

B1: 4.17.3: human IgG2κ monoclonal antibody specific for IGF-IR from hybridoma 4.17.3 (ATCC PTA-2793); named as activating antibody (antibody, V domains shown)
VH: PGLVKPSETLSLTCTVSGGSISSYYWSWIRQPPGKGLEWIGYIYYSGSTNYNPSLKSRVTISVDTSKNQFSLKLSSVTAADTAVYYCARTYSSSFYYYGMDVWGQGTTVTVSS
VL: GDRVTITCRASQSISTFLNWYQQKPGKAPKLLIHVASSLQGGVPSRFSGSGSGTDFTLTISSLQPEDFATYYCQQSYNAPLTFGGGTKVEIK
For orientation: Kd means the constant that tells how readily two partners part at equilibrium. A lower Kd goes with tighter binding. As for B1, binding in assay [2] was put at a Kd of 13 nM.

B2: 2.12.1: human IgG2κ monoclonal antibody specific for IGF-IR from hybridoma 2.12.1 (ATCC PTA-2792) (antibody)
heavy: QAQLVESGGGLVKPGGSLRLSCAASGFTFSDYYMSWIRQAPGKGLEWVSYISSSGSTRDYADSVKGRFTISRDNAKNSLYLQMNSLRAEDTAVYYCVRDGVETTFYYYYYGMDVWGQGTTVTVSSASTKGPSVFPLAPCSRSTSESTAALGCLVKDYFPEPVTVSWNSGALTSGVHTFPAVLQSSGLYSLSSVVTVPSSNFGTQTYTCNVDHKPSNTKVDKTVERKCCVECPPCPAPPVAGPSVFLFPPKPKDTLMISRTPEVTCVVVDVSHEDPEVQFNWYVDGVEVHNAKTKPREEQFNSTFRVVSVLTVVHQDWLNGKEYKCKVSNKGLPAPIEKTISKTKGQPREPQVYTLPPSREEMTKNQVSLTCLVKGFYPSDIAVEWESNGQPENNYKTTPPMLDSDGSFFLYSKLTVDKSRWQQGNVFSCSVMHEALHNHYTQKSLSLSPGK
light: DIQMTQSPSSLSASVGDRVTFTCRASQDIRRDLGWYQQKPGKAPKRLIYAASRLQSGVPSRFSGSGSGTEFTLTISSLQPEDFATYYCLQHNNYPRTFGQGTEVEIIRTVAAPSVFIFPPSDEQLKSGTASVVCLLNNFYPREAKVQWKVDNALQSGNSQESVTEQDSKDSTYSLSSTLTLSKADYEKHKVYACEVTHQGLSSPVTKSFNRGEC
Turning to B2, the “binding to canine IGF-IR” value with canine IGF-IR was “not”. For the same molecule, the “binding to guinea pig IGF-IR” value in the assay with guinea pig IGF-IR was “not”. The “binding to rabbit IGF-IR” value in the assay with rabbit IGF-IR is reported as “not”. For the same molecule, the “binding to Rhesus IGF-IR” value with Rhesus IGF-IR was “able to bind”. In the assay with IGF-IR from the marmoset, the “binding to marmoset IGF-IR” value is on record as “not”. Binding in [2] was characterised by a dissociation constant (Kd) of 7.37 nM. Besides, the “binding to human IGF-IR” value in the assay with IGF-IR [3] is recorded as “able to bind”. In addition, the “binding to COS7 IGF-IR” value in the assay on COS7 IGF-IR was “able to bind”.

B3: 2.14.3: human IgG2κ monoclonal antibody specific for IGF-IR from hybridoma 2.14.3 (ATCC PTA-2790) (antibody, V domains shown)
VH: GPGLVKPSETLSLTCTVSGGSISNYYWSWIRQPAGKGLEWIGRIYTSGSPNYNPSLKSRVTMSVDTSKNQFSLKLNSVTAADTAVYYCAVTIFGVVIIFDYWGQGTLVTVSS
VL: SSLSASVGDRVTFTCRASQDIRRDLGWYQQKPGKAPKRLIYAASRLQSGVPSRFSGSGSGTEFTLTISSLQPEDFATYYCLQHNNYPRTFGQGTEVEIIR
In [2], B3 came in with a Kd of 0.641 nM. Also, in assay [4], the “binding site on IGF-IR (competition between antibodies)” value is “bind to sites on IGF-IR that are different”.

Values taken from patent publication US7815907B2, “Antibodies to insulin-like growth factor I receptor” (Amgen Fremont Inc., priority 2001, dated 2010).
